Source: paper PMC7969031
Each block holds one molecule with its values, some of them ahead of it.

How the values were obtained:
[1] = molecular target: Cas1 of the Synechocystis sp. PCC6803 type I-D CRISPR-Cas system, untagged (Synechocystis sp. PCC6803); assay: negative-stain electron microscopy
[2] = molecular target: Cas4 of the Synechocystis sp. PCC6803 type I-D CRISPR-Cas system, untagged (Synechocystis sp. PCC6803); assay: SEC-MALS
[3] = molecular target: Cas1 of the Synechocystis sp. PCC6803 type I-D CRISPR-Cas system, untagged (Synechocystis sp. PCC6803); assay: crystal structure
[4] = molecular target: Cas2 of the Synechocystis sp. PCC6803 type I-D CRISPR-Cas system, untagged (Synechocystis sp. PCC6803); assay: crystal structure
[5] = molecular target: T1, Cas1 (type I-D);Cas2 (type I-D) (Synechocystis sp. PCC6803;Synechocystis …, UniProt Q6ZEI2;Q6ZEI1 1-325;1-94, |); assay: X-ray crystal structure
T1 sequence 1: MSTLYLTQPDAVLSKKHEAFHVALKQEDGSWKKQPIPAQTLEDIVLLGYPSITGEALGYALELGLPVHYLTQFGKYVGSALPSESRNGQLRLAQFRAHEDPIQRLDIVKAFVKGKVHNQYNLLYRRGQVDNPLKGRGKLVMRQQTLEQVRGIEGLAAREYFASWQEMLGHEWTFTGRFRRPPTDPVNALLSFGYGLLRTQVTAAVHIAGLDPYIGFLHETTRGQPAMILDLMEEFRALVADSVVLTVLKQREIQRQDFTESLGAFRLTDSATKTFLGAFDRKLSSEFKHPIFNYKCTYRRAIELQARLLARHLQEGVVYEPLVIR
T1 sequence 2: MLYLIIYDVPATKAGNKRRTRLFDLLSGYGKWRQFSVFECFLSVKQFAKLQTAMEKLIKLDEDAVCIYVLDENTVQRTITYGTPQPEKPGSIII

Cas1 (type I-D) = molecular target: T2, Cas1 (type I-D) (Synechocystis sp. PCC6803, UniProt Q6ZEI2 1-325); assay: EMSA
T2 sequence: T1 sequence 1

[6] = molecular target: T1, Cas1 (type I-D);Cas2 (type I-D); assay: EMSA
[7] = molecular target: T1, Cas1 (type I-D);Cas2 (type I-D); assay: X-ray crystal structure; remark: listed apart in the source

stoichiometry N [1]: 2
stoichiometry N (Cas1 per Cas4) [2]: 2
stoichiometry N [3]: 2
Molecule: Cas1 of the Synechocystis sp. PCC6803 type I-D CRISPR-Cas system, untagged (natural protein)

stoichiometry N [4]: 2
Molecule: Cas2 of the Synechocystis sp. PCC6803 type I-D CRISPR-Cas system, untagged (natural protein)

B1: 26-5-5 double-forked prespacer (dsDNA)
DNA 1: TTTTTTTGTGCCCCTGGCGGTCGCTTTCAAGTTTTT
DNA 2: TTTTTCTTGAAAGCGACCGCCAGGGGCACAATTTTT
binding result [5]: binds

B2: dsDNA EMSA substrate (dsDNA)
DNA 1: TGTGCCCCTGGCGGTCGCTTTCTTTTT
DNA 2: AAAAAGAAAGCGACCGCCAGGGGCACA
binding result (Cas1 (type I-D)): binds
binding result [6]: binds

B3: 22-7-7 double-forked prespacer (dsDNA)
DNA 1: TTTTTTTTGTGCCCCTGGCGGTCGCTTTCTTTTTTT
DNA 2: TTTTTTTGAAAGCGACCGCCAGGGGCACATTTTTTT
binding result [7]: binds
